Starred links: 1 amine or outer side, 2 acyl side, 3 side chain; linkers in the order of their positions; H or OH if unused. Positions of bridges follow the written chain, without caps; N, C: chain ends. Non-standard residues stand in square brackets, D forms with d. Primed or numbered codes have the meaning given here. PyrS2″ = (S)-3-amino-1-((pent-4-en-1-yloxy)carbonyl)pyrrolidine-3-carboxylic acid (stapling residue), C=CCCCOC(=O)N1CC[C@@](N[*:1])(C(=O)[*:2])C1; B5(17) = 2,2-bis(4-pentenyl)glycine = 2-amino-2-(pent-4-en-1-yl)hept-6-enoic acid, stitching residue, C=CCCCC(CCCC=C)(N[*:1])C(=O)[*:2]; B5(4) = 2,2-bis(4-pentenyl)glycine = 2-amino-2-(pent-4-en-1-yl)hept-6-enoic acid (stitching residue), C=CCCCC(CCCC=C)(N[*:1])C(=O)[*:2]; PyrS2 = (S)-3-amino-1-((pent-4-en-1-yloxy)carbonyl)pyrrolidine-3-carboxylic acid, C=CCCCOC(=O)N1CC[C@@](N[*:1])(C(=O)[*:2])C1; B5(7) = 2-amino-2-(pent-4-en-1-yl)hept-6-enoic acid, two olefinic side chains, C=CCCCC(CCCC=C)(N[*:1])C(=O)[*:2]; B5(3) = 2,2-bis(4-pentenyl)glycine (stitching residue), C=CCCCC(CCCC=C)(N[*:1])C(=O)[*:2]; B5 = 2-amino-2-(pent-4-en-1-yl)hept-6-enoic acid, C=CCCCC(CCCC=C)(N[*:1])C(=O)[*:2]; Phe(3,4-F2) = N[C@@H](Cc1ccc(F)c(F)c1)C(=O)O; Phe(3-F) = N[C@@H](Cc1cccc(F)c1)C(=O)O; Bta = N[C@@H](Cc1csc2ccccc12)C(=O)O; αAllylPro = C=CC[C@@]1(C(=O)O)CCCN1; tBuAla = CC(C)(C)C[C@H](N)C(=O)O; 2Pal = N[C@@H](Cc1ccccn1)C(=O)O; 3Pal = N[C@@H](Cc1cccnc1)C(=O)O; 3Thi = N[C@@H](Cc1ccsc1)C(=O)O; S8 = C=CCCCCCC[C@](C)(N)C(=O)O
T1: B-cat-Halo (beta-catenin HaloTag fusion expressed in HEK293 cells) (Homo sapiens (Human), UniProt P35222 1-781)
T1 sequence: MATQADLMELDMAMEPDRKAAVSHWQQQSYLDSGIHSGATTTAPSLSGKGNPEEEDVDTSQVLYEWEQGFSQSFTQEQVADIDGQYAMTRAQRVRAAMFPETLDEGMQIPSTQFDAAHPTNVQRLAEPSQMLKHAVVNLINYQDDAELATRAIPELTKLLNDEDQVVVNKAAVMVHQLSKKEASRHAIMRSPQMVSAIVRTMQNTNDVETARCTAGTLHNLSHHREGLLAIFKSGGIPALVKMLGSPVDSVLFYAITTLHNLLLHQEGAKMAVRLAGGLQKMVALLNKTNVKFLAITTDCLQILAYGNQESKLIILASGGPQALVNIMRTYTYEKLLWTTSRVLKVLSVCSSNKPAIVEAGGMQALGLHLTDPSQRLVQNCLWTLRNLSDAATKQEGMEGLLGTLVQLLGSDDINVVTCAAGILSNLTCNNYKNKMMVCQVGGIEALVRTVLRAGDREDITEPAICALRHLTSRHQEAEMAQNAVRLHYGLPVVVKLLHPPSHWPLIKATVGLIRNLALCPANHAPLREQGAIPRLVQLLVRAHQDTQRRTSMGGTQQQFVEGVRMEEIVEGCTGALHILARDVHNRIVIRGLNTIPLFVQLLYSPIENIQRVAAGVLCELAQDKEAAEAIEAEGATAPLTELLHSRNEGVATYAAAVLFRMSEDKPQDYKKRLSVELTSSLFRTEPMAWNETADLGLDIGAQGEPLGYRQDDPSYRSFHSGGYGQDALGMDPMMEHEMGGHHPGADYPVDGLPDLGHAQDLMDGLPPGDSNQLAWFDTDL

T2: full-length beta-Catenin (Uniprot ID P35222) (Homo sapiens (Human), UniProt P35222 1-781)
T2 construct: The assay protocols call it full-length; also called B-Catenin; bCat
T2 sequence: T1 sequence

B1: I-267 (peptide)
peptide: Ac-[αAllylPro]DA[B5(17)]DDAA[Phe(3,4-F2)]V[S8]FWQ-NH2
modifications: staple 1-4, 4-11
notes: Stapled (stitched) peptide; also called Ac-PL3-Asp-Ala-B5-Asp-Asp-Ala-Ala-34FF-Val-S8-Phe-Trp-Gln-NH2
B2: I-289 (peptide)
peptide: XDAXDDAAFVXFW
modifications: not fully specified; N-terminal Ac; PL3 at 1; B5 at 4; S8 at 11; C-terminal NH2; staples PL3(1)-B5(4) and B5(4)-S8(11) by olefin metathesis
notes: Stapled (stitched) peptide; also called Ac-PL3-Asp-Ala-B5-Asp-Asp-Ala-Ala-Phe-Val-S8-Phe-Trp-NH2
B3: I-271 (peptide)
peptide: Ac-[αAllylPro]DA[B5(17)]D[3Pal]AAFV[S8]FWQ-NH2
modifications: staple 1-4, 4-11
notes: Stapled (stitched) peptide; also called Ac-PL3-Asp-Ala-B5-Asp-3PyrA-Ala-Ala-Phe-Val-S8-Phe-Trp-Gln-NH2
B4: I-270 (peptide)
peptide: Ac-[αAllylPro]DA[B5(17)]D[2Pal]AAFV[S8]FWQ-NH2
modifications: staple 1-4, 4-11
notes: Stapled (stitched) peptide; also called Ac-PL3-Asp-Ala-B5-Asp-2PyrA-Ala-Ala-Phe-Val-S8-Phe-Trp-Gln-NH2
B5: I-290 (peptide)
peptide: XDAXDDAAFVXFW
modifications: not fully specified; N-terminal Ac; PL3 at 1; B5 at 4; S8 at 11; C-terminal NH2; staples PL3(1)-B5(4) and B5(4)-S8(11) by olefin metathesis
notes: as for B2
B6: I-264 (peptide)
peptide: Ac-[αAllylPro]DA[B5(4)]DDAA[Phe(3-F)]V[S8]FWQ-NH2
modifications: staple 1-4, 4-11; not fully specified; printed as Ac-PL3-Asp-Ala-B5-Asp-Asp-Ala-Ala-3FF-Val-S8-Phe-Trp-Gln-NH2
notes: Stapled (stitched) peptide; also called Ac-PL3-Asp-Ala-B5-Asp-Asp-Ala-Ala-3FF-Val-S8-Phe-Trp-Gln-NH2
B7: I-265 (peptide)
peptide: Ac-[αAllylPro]DA[B5(4)]DDAA[Phe(3-F)]V[S8]FWQ-NH2
modifications: staple 1-4, 4-11; not fully specified; printed as Ac-PL3-Asp-Ala-B5-Asp-Asp-Ala-Ala-3FF-Val-S8-Phe-Trp-Gln-NH2
notes: as for B6
B8: I-276 (peptide)
peptide: XDAXDDAAFVXXWQ
modifications: not fully specified; N-terminal Ac; PL3 at 1; B5 at 4; S8 at 11; 1NapA at 12; C-terminal NH2; staples PL3(1)-B5(4) and B5(4)-S8(11) by olefin metathesis
notes: Stapled (stitched) peptide; also called Ac-PL3-Asp-Ala-B5-Asp-Asp-Ala-Ala-Phe-Val-S8-1NapA-Trp-Gln-NH2

These binders were tested against T1, B-cat-Halo (beta-catenin HaloTag fusion …) (assay: cell-based or functional assay).

| NanoBRET IC50 [µM] | NanoBRET % inh @ 10 uM [%] | Binder |
| --- | --- | --- |
| 11.7 | – | Ac-[αAllylPro]D[tBuAla][B5(3)]DDAAFT[PyrS2″][3Thi][Bta]Q-NH2 (staple 1-4, 4-11) [I-809] |
| 7.7 | 53 | Ac-[αAllylPro]D[tBuAla][B5]DDAAFN[PyrS2″][3Thi][Bta]Q[dA]-NH2 (staple 1-4, 4-11) [I-822] |
| 11.8 | – | Ac-[αAllylPro]D[tBuAla][B5]DDAAFN[PyrS2″][3Thi][Bta]S-NH2 (staple 1-4, 4-11) [I-815] |
| – | 37.8 | Ac-[αAllylPro]D[tBuAla][B5]DDAAFN[PyrS2″][3Thi][Bta]QA-NH2 (staple 1-4, 4-11) [I-819] |
| – | 31.4 | Ac-[αAllylPro]D[tBuAla][B5]DDAAFN[PyrS2″][3Thi][Bta][dN]-NH2 (staple 1-4, 4-11) [I-818] |
| > 10 | 37.5 | Ac-[αAllylPro]D[tBuAla][B5(7)]DDAAFN[PyrS2][3Thi][Bta]H[dA]-NH2 (staple 1-4, 4-11) [I-823] |
| 6.8 | 45 | Ac-[αAllylPro]D[tBuAla][B5]DDAAFN[PyrS2″][3Thi][Bta][dT]-NH2 (staple 1-4, 4-11) [I-817] |
| 12.7 | – | Ac-[αAllylPro]D[tBuAla][B5]DDAAFN[PyrS2″][3Thi][Bta]T-NH2 (staple 1-4, 4-11) [I-814] |
| – | 30.8 | Ac-[αAllylPro]D[tBuAla][B5]DDAAFN[PyrS2″][3Thi][Bta]HA-NH2 (staple 1-4, 4-11) [I-820] |

Each binder was assayed against T2, full-length beta-Catenin (Uniprot ID …) (assay: fluorescence polarization competition; full-length beta-catenin with 5FAM-labelled TCF4 10-53 peptide as competitor).
Method: (§1) The plate was incubated protected from light for 60 minutes at 20° C. prior to read. Reads were performed on a CLARIOstar plate reader (BMG Labtech) in duplicate, and data were fitted to a 1:1 binding model with hill slope using an in-house script. All provided concentrations are final concentrations.

| EC50 [µM] | Binder |
| --- | --- |
| 5 | B1 |
| 5 | B2 |
| 5 | B3 |
| 5 | B4 |
| 3.29 | B5 |
| 5 | B6 |
| 3.76 | B7 |
| 3.43 | B8 |

The binders below were run against T2, full-length beta-Catenin (Uniprot ID …) (assay: AlphaScreen competition; full-length beta-catenin with biotin-labelled TCF4 10-53 peptide as competitor).
Method: as §1, with “Equal volume of the titrated peptide was added to the” for “The”, “and” for “was”, “incubated for 15 minutes at 20° C. Then 4 uL of donor and 4 uL acceptor beads at 10 ug/mL were added to the plate, for a 16 uL reaction pool and” for “incubated”

| EC50 [µM] | Binder |
| --- | --- |
| 0.62 | B1 |
| 0.626 | B2 |
| 0.788 | B3 |
| 0.835 | B4 |
| 0.303 | B5 |
| 0.364 | B6 |
| 0.194 | B7 |
| 0.329 | B8 |
